# B1: Pistol ribozyme (parent)
# chain: GGGUCGUUGUUCCAUAAUCGCGUGGAUAUGGCACGCAAGUUUCUACCGGGCACCGUAAAUGUCCGACUGGAGCCGUUCGGGCGGCUAUAAACAGACCUCAGGCCCGAAGCGUGGCGGCACCUGCCGCCGGUGGUAAAAAAGAUCGGAAGAGCACACGUCU
# Variants of: B1
# Test: aptazyme ON/OFF ratio, guanine; higher = stronger switching; co-transcriptional cleavage with and without guanine
row,Variant,aptazyme ON/OFF ratio
1,GGGUCGCUAGACUAUAAUCGCGUGGAUAUGGCACGCAAGUUUCUACCGGGCACCGUAAAUGUCCGACUGGAGCCGUUCGGGCGGCUAUAAACAGACCUCAGGCCCGAAGCGUGGCGGCACCUGCCGCCGGUGGUAAAAAAGAUCGGAAGAGCACACGUCU [U7C G9A U10G U11A C13U],1.03
2,GGGUCGCUAGACAAUAAUCGCGUGGAUAUGGCACGCAAGUUUCUACCGGGCACCGUAAAUGUCCGACUGGAGCCGUUCGGGCGGCUAUAAACAGACCUCAGGCCCGAAGCGUGGCGGCACCUGCCGCCGGUGGUAAAAAAGAUCGGAAGAGCACACGUCU [U7C G9A U10G U11A C13A],1.06
3,GGGUCGCUAGACGAUAAUCGCGUGGAUAUGGCACGCAAGUUUCUACCGGGCACCGUAAAUGUCCGACUGGAGCCGUUCGGGCGGCUAUAAACAGACCUCAGGCCCGAAGCGUGGCGGCACCUGCCGCCGGUGGUAAAAAAGAUCGGAAGAGCACACGUCU [U7C G9A U10G U11A C13G],1.04
4,GGGUCGCUAGGGUAUAAUCGCGUGGAUAUGGCACGCAAGUUUCUACCGGGCACCGUAAAUGUCCGACUGGAGCCGUUCGGGCGGCUAUAAACAGACCUCAGGCCCGAAGCGUGGCGGCACCUGCCGCCGGUGGUAAAAAAGAUCGGAAGAGCACACGUCU [U7C G9A U10G U11G C12G C13U],1.07
5,GGGUCGCUAGGGGAUAAUCGCGUGGAUAUGGCACGCAAGUUUCUACCGGGCACCGUAAAUGUCCGACUGGAGCCGUUCGGGCGGCUAUAAACAGACCUCAGGCCCGAAGCGUGGCGGCACCUGCCGCCGGUGGUAAAAAAGAUCGGAAGAGCACACGUCU [U7C G9A U10G U11G C12G C13G],1.05
6,GGGUCGCUAGGGAAUAAUCGCGUGGAUAUGGCACGCAAGUUUCUACCGGGCACCGUAAAUGUCCGACUGGAGCCGUUCGGGCGGCUAUAAACAGACCUCAGGCCCGAAGCGUGGCGGCACCUGCCGCCGGUGGUAAAAAAGAUCGGAAGAGCACACGUCU [U7C G9A U10G U11G C12G C13A],1.07
7,GGGUCGCUAGAGAAUAAUCGCGUGGAUAUGGCACGCAAGUUUCUACCGGGCACCGUAAAUGUCCGACUGGAGCCGUUCGGGCGGCUAUAAACAGACCUCAGGCCCGAAGCGUGGCGGCACCUGCCGCCGGUGGUAAAAAAGAUCGGAAGAGCACACGUCU [U7C G9A U10G U11A C12G C13A],1.15
8,GGGUCGCUAGAGGAUAAUCGCGUGGAUAUGGCACGCAAGUUUCUACCGGGCACCGUAAAUGUCCGACUGGAGCCGUUCGGGCGGCUAUAAACAGACCUCAGGCCCGAAGCGUGGCGGCACCUGCCGCCGGUGGUAAAAAAGAUCGGAAGAGCACACGUCU [U7C G9A U10G U11A C12G C13G],1.31
9,GGGUCGCUAGAGUAUAAUCGCGUGGAUAUGGCACGCAAGUUUCUACCGGGCACCGUAAAUGUCCGACUGGAGCCGUUCGGGCGGCUAUAAACAGACCUCAGGCCCGAAGCGUGGCGGCACCUGCCGCCGGUGGUAAAAAAGAUCGGAAGAGCACACGUCU [U7C G9A U10G U11A C12G C13U],1.25
10,GGGUCGCUAGCGUAUAAUCGCGUGGAUAUGGCACGCAAGUUUCUACCGGGCACCGUAAAUGUCCGACUGGAGCCGUUCGGGCGGCUAUAAACAGACCUCAGGCCCGAAGCGUGGCGGCACCUGCCGCCGGUGGUAAAAAAGAUCGGAAGAGCACACGUCU [U7C G9A U10G U11C C12G C13U],1.11
11,GGGUCGCUAGCGGAUAAUCGCGUGGAUAUGGCACGCAAGUUUCUACCGGGCACCGUAAAUGUCCGACUGGAGCCGUUCGGGCGGCUAUAAACAGACCUCAGGCCCGAAGCGUGGCGGCACCUGCCGCCGGUGGUAAAAAAGAUCGGAAGAGCACACGUCU [U7C G9A U10G U11C C12G C13G],1.34
12,GGGUCGCUAGCGAAUAAUCGCGUGGAUAUGGCACGCAAGUUUCUACCGGGCACCGUAAAUGUCCGACUGGAGCCGUUCGGGCGGCUAUAAACAGACCUCAGGCCCGAAGCGUGGCGGCACCUGCCGCCGGUGGUAAAAAAGAUCGGAAGAGCACACGUCU [U7C G9A U10G U11C C12G C13A],1.19
13,GGGUCGCUAGAUAAUAAUCGCGUGGAUAUGGCACGCAAGUUUCUACCGGGCACCGUAAAUGUCCGACUGGAGCCGUUCGGGCGGCUAUAAACAGACCUCAGGCCCGAAGCGUGGCGGCACCUGCCGCCGGUGGUAAAAAAGAUCGGAAGAGCACACGUCU [U7C G9A U10G U11A C12U C13A],1.05
14,GGGUCGCUAGAUUAUAAUCGCGUGGAUAUGGCACGCAAGUUUCUACCGGGCACCGUAAAUGUCCGACUGGAGCCGUUCGGGCGGCUAUAAACAGACCUCAGGCCCGAAGCGUGGCGGCACCUGCCGCCGGUGGUAAAAAAGAUCGGAAGAGCACACGUCU [U7C G9A U10G U11A C12U C13U],1.18
15,GGGUCGCUAGAUGAUAAUCGCGUGGAUAUGGCACGCAAGUUUCUACCGGGCACCGUAAAUGUCCGACUGGAGCCGUUCGGGCGGCUAUAAACAGACCUCAGGCCCGAAGCGUGGCGGCACCUGCCGCCGGUGGUAAAAAAGAUCGGAAGAGCACACGUCU [U7C G9A U10G U11A C12U C13G],1.14
16,GGGUCGCUAGGUCAUAAUCGCGUGGAUAUGGCACGCAAGUUUCUACCGGGCACCGUAAAUGUCCGACUGGAGCCGUUCGGGCGGCUAUAAACAGACCUCAGGCCCGAAGCGUGGCGGCACCUGCCGCCGGUGGUAAAAAAGAUCGGAAGAGCACACGUCU [U7C G9A U10G U11G C12U],1.28
17,GGGUCGCUAGGACAUAAUCGCGUGGAUAUGGCACGCAAGUUUCUACCGGGCACCGUAAAUGUCCGACUGGAGCCGUUCGGGCGGCUAUAAACAGACCUCAGGCCCGAAGCGUGGCGGCACCUGCCGCCGGUGGUAAAAAAGAUCGGAAGAGCACACGUCU [U7C G9A U10G U11G C12A],1.16
18,GGGUCGCUAGGGCAUAAUCGCGUGGAUAUGGCACGCAAGUUUCUACCGGGCACCGUAAAUGUCCGACUGGAGCCGUUCGGGCGGCUAUAAACAGACCUCAGGCCCGAAGCGUGGCGGCACCUGCCGCCGGUGGUAAAAAAGAUCGGAAGAGCACACGUCU [U7C G9A U10G U11G C12G],1.23
